{"source": "paper PMC8215292", "about": "“Functional impact of intramolecular cleavage and dissociation of adhesion G protein–coupled receptor GPR133 (ADGRD1) on canonical signaling” (The Journal of Biological Chemistry, 2021)", "binders": {"B1": {"name": "GPR133 (ADGRD1) N-terminal fragment, cleaved from C-terminally Twin-Strep-tagged WT GPR133 (domain or fragment, human)", "chain": "VYSRSQDHPGFQVLASASHYWPLENVDGIHELQDTTGDIVEGKVNKGIYLKEEKGVTLLYYGRYNSSCISKPEQCGPEGVTFSFFWKTQGEQSRPIPSAYGGQVISNGFKVCSSGGRGSVELYTRDNSMTWEASFSPPGPYWTHVLFTWKSKEGLKVYVNGTLSTSDPSGKVSRDYGESNVNLVIGSEQDQAKCYENGAFDEFIIWERALTPDEIAMYFTAAIGKHALLSSTLPSLFMTSTASPVMPTDAYHPIITNLTEERKTFQSPGVILSYLQNVSLSLPSKSLSEQTALNLTKTFLKAVGEILLLPGWIALSEDSAVVLSLIDTIDTVMGHVSSNLHGSTPQVTVEGSSAMAEFSVAKILPKTVNSSHYRFPAHGQSFIQIPHEAFHRHAWSTVVGLLYHSMHYYLNNIWPAHTKIAEAMHHQDCLLFATSHLISLEVSPPPTLSQNLSGSPLITVHLKHRLTRKQHSEATNSSNRVFVYCAFLDFSSGEGVWSNHGCALTRGNLTYSVCRCTHL", "modifications": "glycosylated (immaturely and maturely glycosylated forms; nine N-linked glycosylation sites predicted within the NTF)", "notes": "signal peptide in the construct; codon-optimized cDNA of WT human GPR133 from Axxam; also called NTF; GPR133 NTF; source: HEK293T, transfected, in whole-cell lysate or subcellular fractions"}}, "key": {"[1]": {"biological_target": "T1, GPR133 (ADGRD1) C-terminal fragment with C-terminal Twin-Strep-tag, cleaved from C-terminally … (human)", "T1 construct": "also called CTF; GPR133 CTF; source: HEK293T, transfected, in whole-cell lysate or subcellular fractions; not shown: Twin-Strep, C-terminal, kept", "T1 chain": "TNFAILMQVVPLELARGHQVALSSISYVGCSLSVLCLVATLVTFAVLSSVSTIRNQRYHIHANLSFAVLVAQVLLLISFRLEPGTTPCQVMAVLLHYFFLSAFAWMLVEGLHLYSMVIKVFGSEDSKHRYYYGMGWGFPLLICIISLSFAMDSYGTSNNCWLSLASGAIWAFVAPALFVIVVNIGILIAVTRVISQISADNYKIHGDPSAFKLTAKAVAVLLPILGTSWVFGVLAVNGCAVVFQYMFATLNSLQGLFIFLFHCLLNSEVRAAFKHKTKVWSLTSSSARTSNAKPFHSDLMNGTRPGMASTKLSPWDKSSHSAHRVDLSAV", "assay": "pull-down; C-terminal Twin-Strep tag purification on Strep-Tactin from the plasma membrane subcellular fraction of HEK293T cells (1% DDM); Western blot, densitometry of NTF/CTF", "details": "partners not purified"}, "[2]": {"biological_target": "T1, GPR133 (ADGRD1) C-terminal fragment …", "assay": "pull-down; C-terminal Twin-Strep tag purification on Strep-Tactin from the Nuc/ER/Golgi subcellular fraction of HEK293T cells (1% DDM); Western blot, densitometry of NTF/CTF", "details": "partners not purified"}}, "data": [{"binder": "B1", "values": [{"measurement": "NTF/CTF ratio in the elution", "setting": "[1]", "value": 0.17}, {"measurement": "NTF/CTF ratio in the elution", "setting": "[2]", "value": 1}]}]}
